This note sets out measurements from the supplement of paper PMC9170038.

The data set has as its system MS2 coat protein. Put plainly: apparent KD of MS2 coat protein; higher = weaker reporter binding. As to conditions: Eterna round: R107. The procedure:
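RNA-MaP round R107: designed RNA switches with theophylline, tryptophan, arginine or FMN aptamers are transcribed on-chip within common flanks. They are titrated with SNAP-549-labelled MS2 coat protein in RNA-MaP buffer (100 mM Tris pH 7.5, 80 mM KCl, 4 mM MgCl2), without ligand or with the indicated ligand. Median apparent KD per design.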

Where [1] appears, read: input ligand: theophylline 20 uM.
Setting [2] is: input ligand: theophylline 2 mM.
Setting [3] is: input ligand: tryptophan 2.4 mM.

Take “ACGGGCAUGGCGGCCGCCACUGGUUGGCGUGCGGAUGAGGGAACAUGAGGAUCACCCAUGUUGGUUAGGACCGGGCUGGCGUCGA [kkymullin]”: the “apparent KD of MS2 coat protein” value runs as follows: (input ligand: arginine 13.2 mM) 12.6 nM; (input ligand: none) 15.4 nM; under setting [1], 49.8 nM; under setting [2], 16 nM; under setting [3], 18 nM.

As to “ACGUAAUGCGGAAGGAGCGUCAUUUUAAAACAUGAGGAUCACCCAUGUAAUAUUUUUGUGUGACAGGUAGGUCGCCGAAGUACGA [#07 Same State - Arginine B]”, the “apparent KD of MS2 coat protein” value reads like this: (input ligand: arginine 13.2 mM) 14.4 nM; (input ligand: none) 12.9 nM; under setting [1], 19.3 nM; under setting [2], 14.4 nM; under setting [3], 13.6 nM.

On to “ACGUUUUAGUCGGCCGCCACUGUUUUCAUGUUCAACAUGAGGAUCACCCAUGUACCUUUUUUUAUCAGGACCGGGACGUAAUAGA [JR_SSTryptoB_Sub004]”, for which the “apparent KD of MS2 coat protein” value runs as follows: (input ligand: arginine 13.2 mM) 47.7 nM; under setting [1], 102 nM; under setting [2], 77.3 nM.

On to “ACUGGACAUGAGGAUCACCCAUGUGGCGAUACCAGUUUCAGCGGGAACCCUUGGCAGCGCGGUGCCGGCCAUAGAAGUUCUGGGA [theeternabot_sameState_MS2_Theo_A_39]”, for which the “apparent KD of MS2 coat protein” value runs as follows: (input ligand: arginine 13.2 mM) 42.1 nM; under setting [1], 56.1 nM; under setting [3], 40.6 nM.

Turning to “ACUUUGUCGGGUGAUACCAGCCUCGGCAAAUCUCGUGCCGAACAUGAGGAUCACCCAUGUGGCCCUUGGCAGCACAUGACAACUC [Cezara]”, the “apparent KD of MS2 coat protein” value reads like this: (input ligand: arginine 13.2 mM) 26.3 nM; under setting [1], 546 nM; under setting [3], 912 nM.

On to “AGACAUGAGGAUCACCCAUGUAGUACGGAUACCAGAUCCAGAUGCGUCCCUUGGCAGCUGUAGUACAGCGUUACAUCGCUCGUAG [Exclusion - Theophylline A (Freestyle 24)]”, for which the “apparent KD of MS2 coat protein” value (input ligand: arginine 13.2 mM) was determined as 16.9 nM, the “apparent KD of MS2 coat protein” value under setting [1] was 24.8 nM and the “apparent KD of MS2 coat protein” value under setting [3] is 22.4 nM.

For “AGAUUACAUGUUAUAAUACGGUAUACUGAUACCAGUGUUUCUAUUCACCCUUGGCAGCAGCAACAUGAGGAUCACCCAUGUAUUA [JR_SSTheophyA_Sub017]”, the “apparent KD of MS2 coat protein” value runs as follows: (input ligand: arginine 13.2 mM) 14.9 nM; under setting [1], 21.4 nM; under setting [3], 17.7 nM.

On to “AGAUUCGACACGGCCGCCACUCGUGACGGAUUUCCGAGUGUCGAACAUGAGGAUCACCCAUGUACGAGGACCGGGUGUUGAGUCU [XTryp B #13]”, for which the “apparent KD of MS2 coat protein” value (input ligand: arginine 13.2 mM) stood at 39.6 nM, the “apparent KD of MS2 coat protein” value under setting [1] turned out to be 86.7 nM and the “apparent KD of MS2 coat protein” value under setting [2] is 90.4 nM.

For “AGCAACAAGUCGGCCGCCACUCUUUUAACAUGAGGAUCACCCAUGUUUAUAUCAUGGUUUUAAUAGAGGACCGGGACAGUUGCAU [JR_ExcTryptoB_Sub005]”, the “apparent KD of MS2 coat protein” value came out at 26.3 nM (input ligand: arginine 13.2 mM), 37 nM under setting [1] and 43.2 nM under setting [2].

On to “AGCACGGUGAUGGUAGCCGGACGAUAAGUACGAGGACCGGUACGGCCGCCACUCGAAGUCCUACGACAUGAGGAUCACCCAUGUA [Same State Trp A GF11]”, for which the “apparent KD of MS2 coat protein” value is, setting by setting: (input ligand: arginine 13.2 mM) 30.4 nM; under setting [1], 47 nM; under setting [2], 73.6 nM.

“AGCACUGUGACGGCCGCCACUAUAUUAGGGUGGUCAGGUUCAUAAAUACAUGAGGAUCACCCAUGUAGGACCGGGUCUCAGUGCA [Omei Trp Exc B A v3]”: the “apparent KD of MS2 coat protein” value by setting is: (input ligand: arginine 13.2 mM) 11.1 nM; under setting [1], 13.8 nM; under setting [2], 12.3 nM.

Regarding “AGCAGCUCGAAAGAGUUGCACUCAUGUGAAGGAGCGCCCGUUAGGGCAGGUAGGUCGCACAUGAGGAUCACCCAUGUACCUUCUA [ArgAX 20 #OpenEnded #MS2Late]”, the “apparent KD of MS2 coat protein” value (input ligand: arginine 13.2 mM) worked out at 84.4 nM; the “apparent KD of MS2 coat protein” value (input ligand: none) turned out to be 174 nM; the “apparent KD of MS2 coat protein” value under setting [1] was found to be 182 nM; the “apparent KD of MS2 coat protein” value under setting [2] is 273 nM; the “apparent KD of MS2 coat protein” value under setting [3] was determined as 188 nM.

Take “AGCAGCUGGUUUCUUUUCUUUACAGCUGCACGAGGACCGGUACGGCCGCCACUCGAGGACAUGAGGAUCACCCAUGUGCCGGUCG”: the “apparent KD of MS2 coat protein” value reads like this: (input ligand: arginine 13.2 mM) 34.1 nM; (input ligand: none) 25.6 nM; under setting [1], 40.6 nM; under setting [2], 49.7 nM; under setting [3], 22.7 nM.

In the case of “AGCGACAUGCGUGAUACCAGCUACAUGAGGAUCACCCAUGUACGUCAGUAAUGACUGUGUAGCCCUUGGCAGCAUAAUGCAUGUC [Exclusion - Theophylline B (Freestyle 18)]”, the “apparent KD of MS2 coat protein” value runs as follows: (input ligand: arginine 13.2 mM) 36.1 nM; under setting [1], 55.8 nM; under setting [3], 33.3 nM.

For the sequence “AGCGCAGGUCCUGAUACCAGAGACAUGAGGAUCACCCAUGUCCGAUGGUCCUGCCUCAGGCUCCCUUGGCAGCAGGGCUUGUGCU [Exclusion Theophylline B GF10]”, the “apparent KD of MS2 coat protein” value reads like this: (input ligand: arginine 13.2 mM) 10.6 nM; under setting [1], 13.1 nM; under setting [3], 10.1 nM.

Turning to “AGCGUAUAGACGGAUACCAGCGCCGAUUAACAUGAGGAUCACCCAUGUAGUGUGGGUGGACGCCCUUGGCAGCCGAGUAUAGGUA [#07 Exclusion-TheophyllineB]”, the “apparent KD of MS2 coat protein” value stood at 391 nM (input ligand: arginine 13.2 mM); 89.7 nM (input ligand: none); 115 nM under setting [1]; 360 nM under setting [2]; 221 nM under setting [3].

On to “AGCUCAUAGAGUGAUACCAGACUACAUGAGGAUCACCCAUGUUACUUUUAAAUAUCAUUUGUCCCUUGGCAGCACAUGAAGAGCA [JR_Nu_ExcTheophyB_Sub017]”, for which the “apparent KD of MS2 coat protein” value is 18.3 nM (input ligand: arginine 13.2 mM), 18.5 nM under setting [1] and 13.8 nM under setting [3].

Regarding “AGGCUUCGCAUAGGAAAACUAUGUGAAGCCCGAGGACCGGUACGGCCGCCACUCGUCCUCAACAUGAGGAUCACCCAUGUAAUAA [Mat - Exclusion - Trytophan A - D1]”, the “apparent KD of MS2 coat protein” value runs as follows: (input ligand: arginine 13.2 mM) 24.5 nM; (input ligand: none) 15.4 nM; under setting [1], 41.6 nM; under setting [2], 24.6 nM; under setting [3], 28.8 nM.
